Experimental data taken from US20230025129A1 (KYMAB, published 2023).
Numbering of substitutions follows the chain as printed.

T1: human matriptase-2 ECD protein his tag (human, UniProt Q8IU80 78-811)
T1 sequence: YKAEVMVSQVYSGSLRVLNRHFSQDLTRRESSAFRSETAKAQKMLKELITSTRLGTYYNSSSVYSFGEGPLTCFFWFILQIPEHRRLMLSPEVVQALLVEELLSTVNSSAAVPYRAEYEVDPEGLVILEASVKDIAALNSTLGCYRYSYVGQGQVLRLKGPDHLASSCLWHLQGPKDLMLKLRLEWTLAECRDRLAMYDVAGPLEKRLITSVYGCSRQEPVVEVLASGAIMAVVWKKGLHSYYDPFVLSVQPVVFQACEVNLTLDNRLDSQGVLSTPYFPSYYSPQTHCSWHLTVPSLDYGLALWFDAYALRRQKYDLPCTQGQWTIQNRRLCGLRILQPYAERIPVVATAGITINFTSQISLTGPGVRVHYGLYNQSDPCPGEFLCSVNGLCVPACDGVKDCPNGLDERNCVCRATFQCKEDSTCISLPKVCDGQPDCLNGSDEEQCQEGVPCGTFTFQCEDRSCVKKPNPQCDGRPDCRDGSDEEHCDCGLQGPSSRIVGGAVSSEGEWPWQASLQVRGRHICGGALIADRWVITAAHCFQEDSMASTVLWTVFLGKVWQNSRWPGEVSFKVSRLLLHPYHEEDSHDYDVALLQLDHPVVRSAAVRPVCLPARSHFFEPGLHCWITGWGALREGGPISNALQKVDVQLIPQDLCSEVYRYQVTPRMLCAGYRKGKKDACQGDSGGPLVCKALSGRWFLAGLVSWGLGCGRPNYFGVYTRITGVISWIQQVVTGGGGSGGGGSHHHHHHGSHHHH

T2: mouse matriptase-2 ECD protein his tag (mouse, UniProt Q9DBI0 80-811)
T2 sequence: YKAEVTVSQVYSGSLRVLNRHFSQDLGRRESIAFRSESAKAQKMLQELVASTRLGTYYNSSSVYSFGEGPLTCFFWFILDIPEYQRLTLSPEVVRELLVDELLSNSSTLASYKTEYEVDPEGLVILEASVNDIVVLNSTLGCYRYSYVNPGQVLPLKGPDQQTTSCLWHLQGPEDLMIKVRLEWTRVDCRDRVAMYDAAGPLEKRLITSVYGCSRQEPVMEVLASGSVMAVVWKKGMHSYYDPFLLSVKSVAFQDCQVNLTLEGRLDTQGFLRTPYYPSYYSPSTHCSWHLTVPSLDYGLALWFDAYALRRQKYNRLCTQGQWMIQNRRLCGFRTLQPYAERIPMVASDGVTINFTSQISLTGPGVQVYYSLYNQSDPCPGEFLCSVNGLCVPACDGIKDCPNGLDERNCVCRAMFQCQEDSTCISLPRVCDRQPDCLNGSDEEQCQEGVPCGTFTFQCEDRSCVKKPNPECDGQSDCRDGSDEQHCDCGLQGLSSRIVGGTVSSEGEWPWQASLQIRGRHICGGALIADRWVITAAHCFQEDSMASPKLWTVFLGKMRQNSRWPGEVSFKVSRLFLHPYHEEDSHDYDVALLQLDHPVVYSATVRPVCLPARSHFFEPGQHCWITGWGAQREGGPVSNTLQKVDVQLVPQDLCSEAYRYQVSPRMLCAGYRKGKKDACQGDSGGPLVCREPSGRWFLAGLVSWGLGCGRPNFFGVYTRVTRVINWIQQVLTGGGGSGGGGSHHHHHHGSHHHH

T3: human MTP-2 expressed on HEK293 cells (human, UniProt Q8IU80 1-811)
T3 sequence: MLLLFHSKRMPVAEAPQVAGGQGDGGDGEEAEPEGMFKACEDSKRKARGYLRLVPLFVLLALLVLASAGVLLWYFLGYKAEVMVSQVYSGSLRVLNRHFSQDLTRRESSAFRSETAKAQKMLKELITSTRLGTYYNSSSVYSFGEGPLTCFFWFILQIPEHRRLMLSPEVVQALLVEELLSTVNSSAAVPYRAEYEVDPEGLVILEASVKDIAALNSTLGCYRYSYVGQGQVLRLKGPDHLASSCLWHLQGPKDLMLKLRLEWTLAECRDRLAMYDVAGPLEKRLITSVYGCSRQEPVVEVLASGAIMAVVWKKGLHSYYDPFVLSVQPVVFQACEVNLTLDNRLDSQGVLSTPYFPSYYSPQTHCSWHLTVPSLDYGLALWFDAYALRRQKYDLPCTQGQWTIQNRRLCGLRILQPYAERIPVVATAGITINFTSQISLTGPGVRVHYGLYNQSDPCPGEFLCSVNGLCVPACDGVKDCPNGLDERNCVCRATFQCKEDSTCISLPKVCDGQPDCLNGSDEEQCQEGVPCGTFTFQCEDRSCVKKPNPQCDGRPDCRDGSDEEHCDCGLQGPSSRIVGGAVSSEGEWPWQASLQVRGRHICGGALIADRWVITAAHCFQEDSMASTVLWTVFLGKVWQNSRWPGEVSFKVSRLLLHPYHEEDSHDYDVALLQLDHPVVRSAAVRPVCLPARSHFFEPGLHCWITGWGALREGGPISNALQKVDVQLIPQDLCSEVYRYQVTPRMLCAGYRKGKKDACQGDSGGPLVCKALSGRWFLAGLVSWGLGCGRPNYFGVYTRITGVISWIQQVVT

T4: human matriptase-2 mask ECD protein his tag (human, UniProt Q8IU80 78-576)
T4 construct: MTP-2 ECD without the serine protease domain, with C-terminal linker and His tag; also called headless huMTP-2 ECD 78-576 aa; headless human MTP-2 ECD
T4 sequence: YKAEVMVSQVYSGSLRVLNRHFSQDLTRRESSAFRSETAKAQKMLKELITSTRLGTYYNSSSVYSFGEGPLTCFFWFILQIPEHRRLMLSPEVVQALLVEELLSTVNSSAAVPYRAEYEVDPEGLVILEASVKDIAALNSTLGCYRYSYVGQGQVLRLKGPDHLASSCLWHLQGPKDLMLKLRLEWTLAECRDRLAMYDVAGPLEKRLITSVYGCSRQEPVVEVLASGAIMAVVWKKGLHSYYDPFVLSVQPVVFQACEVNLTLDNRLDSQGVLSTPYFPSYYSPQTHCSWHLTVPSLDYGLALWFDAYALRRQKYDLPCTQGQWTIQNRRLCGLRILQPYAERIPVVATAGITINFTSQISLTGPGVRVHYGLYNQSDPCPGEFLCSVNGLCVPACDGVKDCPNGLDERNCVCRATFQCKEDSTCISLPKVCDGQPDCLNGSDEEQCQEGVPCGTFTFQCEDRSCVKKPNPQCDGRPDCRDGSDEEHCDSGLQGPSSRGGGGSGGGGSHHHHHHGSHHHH

B1: NORI-009 (antibody, human IgG4 S228P, lambda, V domains shown)
VH: EVQLVESGGGLVQPGRSLRLSCAASGFTFNDHVIYWVRQVPGKGLEWVSTISWNSDTIAYADSVKGRFTISRDNAKNALYLQMNSLRTEDTALYYCAREKDGDFYYDYFAMDVWGQGTTVTVSS
VL: QSALTQPPSASGSPGQSVTLSCTGTSSDVGYYNYVSWYLQHPGKAPKLMIYEVSKRPSGVPDRFSGSKSANTASLTVSGLQAEDEADYYCSSYAGSNKVVFGGGTKVTVLG
notes: human IgG4PE, lambda
B2: NORI-033 (antibody, human IgG4 S228P, lambda, V domains shown)
VH: QLQLQESGPGLVKPSETLSLTCTVSGDSISSHTYWWGWIRQPPGKGLEWIGSMFYSGSTYYNPSLKSRVVISVDTSRNQFSLKVRSVTAADTAVFYCARHNNWGMENYFDDWGQGTLVTVSS
VL: SYALTQPPSVSVSPGQTARITCSADALPDQYGYWYQQKPGQAPVLVIYKDSERPSGIPERFSGSSSGTTVTLTISGVQAEDEADYYCQSADSSGSYVVFGGGTKLTVLG
B3: NORI-010 (antibody, human IgG4 S228P, lambda)
heavy: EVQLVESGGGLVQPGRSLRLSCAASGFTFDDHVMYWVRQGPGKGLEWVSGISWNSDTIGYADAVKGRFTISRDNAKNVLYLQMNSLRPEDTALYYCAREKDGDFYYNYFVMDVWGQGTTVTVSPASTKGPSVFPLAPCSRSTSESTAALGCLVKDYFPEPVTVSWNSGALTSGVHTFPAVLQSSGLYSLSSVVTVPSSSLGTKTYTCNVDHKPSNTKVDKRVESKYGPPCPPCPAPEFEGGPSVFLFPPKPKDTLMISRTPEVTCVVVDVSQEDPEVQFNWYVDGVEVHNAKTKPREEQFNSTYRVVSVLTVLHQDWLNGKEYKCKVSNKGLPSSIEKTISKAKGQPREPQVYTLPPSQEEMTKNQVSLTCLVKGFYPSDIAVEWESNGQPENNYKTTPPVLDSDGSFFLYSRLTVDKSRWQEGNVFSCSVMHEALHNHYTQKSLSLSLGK
light: QSALTQPPSASGSPGQSVTISCTGTSSDVGFYNFVSWYQQHPDKAPKVMIYEVSKRPSGVPDRFSGSKSGNTASLTVSGLQAEDEADYYCSSYAGSNKVVFGGGTKLTVLGQPKAAPSVTLFPPSSEELQANKATLVCLISDFYPGAVTVAWKADSSPVKAGVETTTPSKQSNNKYAASSYLSLTPEQWKSHRSYSCQVTHEGSTVEKTVAPTECS
notes: human IgG4PE, lambda
B4: NORI-012 (antibody, human IgG4 S228P, lambda, V domains shown)
VH: EVQLVESGGGLVQPGRSLRLSCAASGFTFDDHVMYWVRQAPGKGLEWVSGISWNSDTIGYADAVKGRFTISRDNAKNVLYLHMNSLRPEDTALYYCAREKDGDFYYNYFVMDVWGQGTTVTVSP
VL: B1 VL with L20I, Y31F, Y34F, L39Q, G43D, L48V, A70G, V107L
notes: human IgG4PE, lambda

Biological target: T1, human matriptase-2 ECD protein his tag
Test: cell-based or functional assay

Compared with B1, B2 is 20-fold lower in “Inhibition enzymatic activity human MTP2 protein (IC50)” value: 55.5 nM for the first, 2.84 nM for the second.

B3 and B4 are within 1.5-fold of each other in “Inhibition enzymatic activity human MTP2 protein (IC50)” value: 17.7 nM for the first, 21.2 nM for the second.

Biological target: T2, mouse matriptase-2 ECD protein his tag
Test: cell-based or functional assay

Compared with B1, B2 is 10-fold lower in “Inhibition enzymatic activity mouse MTP2 protein (IC50)” value: 17.6 nM for the first, 1.73 nM for the second.

B3 and B4 are within 1.5-fold of each other in “Inhibition enzymatic activity mouse MTP2 protein (IC50)” value: 9.76 nM for the first, 11.5 nM for the second.

Biological target: T3, human MTP-2 expressed on HEK293 cells
Test: cell-based or functional assay

First: B1
Second: B2
The “Inhibition enzymatic activity human MTP2 on cells (IC50)” value of the first is 28-fold higher: 5.68 nM for the first, 0.206 nM for the second.

B3 and B4 are within 1.5-fold of each other in “Inhibition enzymatic activity human MTP2 on cells (IC50)” value: 3.51 nM for the first, 4.26 nM for the second.

Biological target: T4, human matriptase-2 mask ECD protein his …
Test: SPR, antibody captured, headless ECD as analyte
Method: (§1) Off-rate screening was performed by surface plasmon resonance (SPR), using a Biacore 8K system (GE Healthcare). Anti-human Fc mix (˜1000 RU) were immobilised in both active and reference channels in HBS-P+ buffer (GE BR100671) pH 7.4. Anti-MTP-2 hulgG4PE antibodies were then captured for 60 sec at 10 μl/min at 1 μg/ml concentration (approximatively 35 and 50 RU were captured) only on the active channel. MTP-2 ECD protein analytes were then injected (at 100, 25, 6.25, 1.56 and 0 nM concentrations) for 120 sec (association time) at 30 μl/min and dissociation monitored for 600 sec. Multiple cycle kinetics mode was used with all 8 channels being used. Reference and background were subtracted from the sensorgrams for each antibody and data was fitted using a 1:1 interaction model in the Biacore evaluation software. Rmax, ka, kd globally fitted, RI=0.
Binding was also assessed using the above SPR method with “headless” huMTP-2 ECD 78-576 aa instead of the full ECD. Headless ECD corresponds to the MTP-2 ECD without the serine protease domain.

B1: no binding (tested: analyte up to 100 nM).
B3: no binding (tested: analyte up to 100 nM).
B4: no binding (tested: analyte up to 100 nM).

Biological target: T1, human matriptase-2 ECD protein his tag
Test: SPR (Biacore 8K), huIgG4PE captured on anti-human Fc, MTP-2 ECD as analyte, 1:1 fit
Method: as §1

Going from B1 to B3, the “Binding Late top conc” value falls from 8.6 to 7.9.

With B4 the “Binding Late top conc” value was 8.5.

B1 and B3 are within 1.5-fold of each other in Kd: 15 nM for the first, 10.5 nM for the second.

B4 showed a Kd of 9.13 nM.

First: B1
Second: B3
The Stoichiometry of the first is lower: 0.48 for the first, 0.63 for the second.

B4 showed a Stoichiometry of 0.6.

First: B1
Second: B3
The koff of the first is 2.5-fold higher: 0.00112 s⁻¹ for the first, 0.000442 s⁻¹ for the second.

B4 was tested, and the koff was 0.000427 s⁻¹.

Going from B1 to B3, the kon falls from 74800 M⁻¹ s⁻¹ to 42300 M⁻¹ s⁻¹ (1.8-fold).

With B4 the kon was 46700 M⁻¹ s⁻¹.

Biological target: T2, mouse matriptase-2 ECD protein his tag
Test: as above
Method: as §1

Going from B1 to B3, the “Binding Late top conc” value falls from 5 to 4.5.

With B4 the “Binding Late top conc” value was 4.6.

B1 and B3 are within 1.5-fold of each other in Kd: 19.6 nM for the first, 24.4 nM for the second.

B4 was tested, and the Kd was 29 nM.

Going from B1 to B4, the Stoichiometry rises from 0.47 to 1.08.

Going from B1 to B3, the koff falls from 0.000693 s⁻¹ to 0.000324 s⁻¹ (2.1-fold).

B4 gave a koff of 0.000337 s⁻¹.

Compared with B1, B3 is 2.7-fold lower in kon: 35400 M⁻¹ s⁻¹ for the first, 13300 M⁻¹ s⁻¹ for the second.

In the case of B4, the kon is reported as 11600 M⁻¹ s⁻¹.
